Data reported in IntAct's records for PubMed 23142976.

B1: Autophagy-related protein 3 (Saccharomyces cerevisiae), P40344 (parent)
chain: MIRSTLSSWREYLTPITHKSTFLTTGQITPEEFVQAGDYLCHMFPTWKWNEESSDISYRDFLPKNKQFLIIRKVPCDKRAEQCVEVEGPDVIMKGFAEDGDEDDVLEYIGSETEHVQSTPAGGTKDSSIDDIDELIQDMEIKEEDENDDTEEFNAKGGLAKDMAQERYYDLYIAYSTSYRVPKMYIVGFNSNGSPLSPEQMFEDISADYRTKTATIEKLPFYKNSVLSVSIHPCKHANVMKILLDKVRVVRQRRRKELQEEQELDGVGDWEDLQDDIDDSLRVDQYLIVFLKFITSVTPSIQHDYTMEGW
partner: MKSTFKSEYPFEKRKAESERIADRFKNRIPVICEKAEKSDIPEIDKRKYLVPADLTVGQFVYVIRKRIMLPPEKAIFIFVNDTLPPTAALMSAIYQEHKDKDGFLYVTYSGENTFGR
B2: Ubiquitin-like modifier-activating enzyme ATG7 (Saccharomyces cerevisiae), P38862 (parent)
chain: MSSERVLSYAPAFKSFLDTSFFQELSRLKLDVLKLDSTCQPLTVNLDLHNIPKSADQVPLFLTNRSFEKHNNKRTNEVPLQGSIFNFNVLDEFKNLDKQLFLHQRALECWEDGIKDINKCVSFVIISFADLKKYRFYYWLGVPCFQRPSSTVLHVRPEPSLKGLFSKCQKWFDVNYSKWVCILDADDEIVNYDKCIIRKTKVLAIRDTSTMENVPSALTKNFLSVLQYDVPDLIDFKLLIIRQNEGSFALNATFASIDPQSSSSNPDMKVSGWERNVQGKLAPRVVDLSSLLDPLKIADQSVDLNLKLMKWRILPDLNLDIIKNTKVLLLGAGTLGCYVSRALIAWGVRKITFVDNGTVSYSNPVRQALYNFEDCGKPKAELAAASLKRIFPLMDATGVKLSIPMIGHKLVNEEAQHKDFDRLRALIKEHDIIFLLVDSRESRWLPSLLSNIENKTVINAALGFDSYLVMRHGNRDEQSSKQLGCYFCHDVVAPTDSLTDRTLDQMCTVTRPGVAMMASSLAVELMTSLLQTKYSGSETTVLGDIPHQIRGFLHNFSILKLETPAYEHCPACSPKVIEAFTDLGWEFVKKALEHPLYLEEISGLSVIKQEVERLGNDVFEWEDDESDEIA
partner: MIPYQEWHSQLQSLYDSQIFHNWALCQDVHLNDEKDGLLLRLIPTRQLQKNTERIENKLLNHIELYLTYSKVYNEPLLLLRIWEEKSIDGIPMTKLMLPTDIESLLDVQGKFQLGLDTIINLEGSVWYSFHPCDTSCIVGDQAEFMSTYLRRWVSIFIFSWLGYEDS
B3: Ubiquitin-like modifier-activating enzyme ATG7 (Saccharomyces cerevisiae), P38862 (parent)
chain: B2 chain
partner: B1 chain

Variants of: B1
Details: with atg8_yeast ATG8, P38182

Row | effect of a mutation on the interaction | Variant
1 | disrupting interaction strength | MIRSTLSSWREYLTPITHKSTFLTTGQITPEEFVQAGDYLCHMFPTWKWNEESSDISYRDFLPKNKQFLIIAAVPCDKRAEQCVEVEGPDVIMKGFAEDGDEDDVLEYIGSETEHVQSTPAGGTKDSSIDDIDELIQDMEIKEEDENDDTEEFNAKGGLAKDMAQERAYDLYIAYSTSYRVPKMYIVGFNSNGSPLSPEQMFEDISADYRTKTATIEKLPFYKNSVLSVSIHPCKHANVMKILLDKVRVVRQRRRKELQEEQELDGVGDWEDLQDDIDDSLRVDQYLIVFLKFITSVTPSIQHDYTMEGW [R72A;K73A;Y168A]

Variants of: B2
Details: with atg10_yeast ATG10, Q07879

Row | effect of a mutation on the interaction | Variant
2 | disrupting interaction strength | V285D
3 | disrupting interaction strength | C507A
4 | decreasing interaction strength | Y137A

Variants of: B3
Details: with atg3_yeast ATG3, P40344

Row | Variant | effect of a mutation on the interaction
5 | P283D | decreasing interaction strength
6 | V285A | decreasing interaction strength

More lines, now with the values ahead:

Row | effect of a mutation on the interaction | Variant
7 | disrupting interaction strength | C507A
8 | decreasing interaction strength | F16A;F61A
9 | decreasing interaction strength | K14A;F16A;D18A
